Measured values reported in paper PMC8896805, “Structural insights into ligand recognition, activation, and signaling of the α2A adrenergic receptor” (Science Advances, 2022).
Values belong to the compound of their own block, whether it stands above or below them.

Experiments:
α2AAR F^7.39N mutation = test system: α2AAR F^7.39N mutation; set-up: method as in PMID 31801060; conditions: cited from earlier work
α2AAR S^5.46A = conditions: cited from earlier work
hybrid G protein Gαqi = hybrid G protein Gαqi (UniProt P50148)
hybrid G protein Gαqs = hybrid G protein Gαqs (UniProt P50148)

Compound: NC[C@H](O)c1ccc(O)c(O)c1 [Norepi, norepinephrine]
activity of Norepi at F^7.39N mutant, in words (α2AAR F^7.39N mutation): completely abolishes the activity

Compound: CNC[C@H](O)c1ccc(O)c(O)c1 [epinephrine]
potency to inhibit forskolin-stimulated cAMP accumulation at S^5.46A, in words (α2AAR S^5.46A): markedly reduced the potency

IP accumulation (IP-One HTRF) in HEK293T cotransfected with receptor and Gαqi; Gi coupling activity, decrease against wild-type α2AAR (hybrid G protein Gαqi): 3 fold
IP accumulation (IP-One HTRF) in HEK293T cotransfected with receptor and Gαqs; Gs activity, decrease against wild-type α2AAR (hybrid G protein Gαqs): 10 fold
Compound: chimeric receptor α2AAR-β2-TM5 (from UniProt P08913 1-232; P07550 221-232; P08913 245-465)

IP accumulation (IP-One HTRF) in HEK293T cotransfected with receptor and Gαqi; Gi coupling activity, increase against wild-type β2AR (hybrid G protein Gαqi): > 100 fold
IP accumulation (IP-One HTRF) in HEK293T cotransfected with receptor and Gαqs; Gs coupling activity, increase against wild-type β2AR (hybrid G protein Gαqs): > 100 fold
Compound: chimeric receptor β2AR-α2A-TM5 (from UniProt P07550 1-220; P08913 233-244; P07550 233-413)
